Measurements reported in patent US20160258940A1 (IMRA AMERICA, published 2016).
Primed or numbered codes have the meaning given here. Ends that are not written are not given here. FITC′ = fluorescein isothiocyanate

Target: T1, EpCAM (epithelial cell adhesion molecule) on the surface of HT29 colon cancer cells (UniProt P16422 24-314, limits assumed)
T1 construct: whole, on cells; HT29 is a human cell line
T1 sequence (looked up): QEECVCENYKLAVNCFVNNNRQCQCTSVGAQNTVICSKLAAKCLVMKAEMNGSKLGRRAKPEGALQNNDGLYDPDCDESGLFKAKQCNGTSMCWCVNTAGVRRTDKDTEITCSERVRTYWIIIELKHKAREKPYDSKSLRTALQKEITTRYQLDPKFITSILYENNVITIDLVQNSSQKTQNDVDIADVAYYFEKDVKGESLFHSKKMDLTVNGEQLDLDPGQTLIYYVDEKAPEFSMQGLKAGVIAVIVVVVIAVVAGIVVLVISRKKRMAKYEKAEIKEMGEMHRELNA
Assay: confocal fluorescence microscopy of HT29 spheroids with FITC-Ep114/PEG/gold nanoparticles (PEG ratios 100/1, 200/1, 300/1)
Protocol: A colon cancer cell line HT29 was used to conduct a cellular uptake test. First, by using 96 holes type culture plate for spheroids, EZ-Sphere™ (Asahi Glass Co., Ltd.), spheroid of HT29 cells was formed.
Specifically, HT29, 4×10⁵ cells were suspended in a culture medium in which 20 ng/ml of human EGF (manufactured by Miltenyi Biotec, K.K.), 20 ng/ml of human FGF-2 (manufactured by Miltenyi Biotec K.K.), 1/50 amount of B-27 supplement×50 (manufactured by GIBCO), and 1/100 amount of Penicillin-Streptomycin Solution×100 (manufactured by Wako Pure Chemical Industries, Ltd.) were added to 3 ml of D-MEM/F-12 medium (Dulbecco's Modified Eagle Medium: Nutrient Mixture F-12 1:1 Mixture, manufactured by GIBCO). The suspension was dispensed to each well of 200 μl, and was cultured in CO₂ incubator at 37° C. for 72 hours.
Then, a part of the spheroids (approximately 20 μl) and the gold particle-peptide complex were placed on a glass bottom dish (D110300, Matsunami Glass Ind., Ltd.), and irradiated laser of 488 nm with 40 magnification objective lens by using an inverted confocal laser microscope (FLUOVIEW FV1000IX81 type, manufactured by Olympus Corporation), and observed using a filter for Alexa488.

B1: EpCAM-binding peptide Ep114 (FITC-labelled), bound to PEG-covered gold nanoparticles (peptide)
peptide: {FITC′}-KHLQCVRNICWSGGK
modifications: cysteine pairing not given here; also: bound to PEG-covered gold nanoparticles
notes: In the assay the peptide covered approx. 15 nm gold nanoparticles that were partially covered with mPEG-SH 5k (PEG:particle ratios 100/1, 200/1, 300/1; 2000 peptides per particle); also called EP114 peptide
B1: binds.
